From US20240189443A1, “PD-L1 AND TLR7 DOUBLE-TARGETING NANOBODY COUPLING DRUG AND USE THEREOF IN ANTI-TUMOR” (SHANGHAI INSTITUTE OF MATERIA MEDICA, CHINESE ACADEMY OF …, priority 2021, published 2024)

molecular target: T1, PD-L1 (human PD-L1 protein of the ELISA of Example 16) (human, UniProt Q9NZQ7 19-238, limits assumed); assay: ELISA; affinity relative to original antibody h_Nb1 VHH (SEQ ID NO.21)
T1 sequence (Q9NZQ7 19-238 limits assumed): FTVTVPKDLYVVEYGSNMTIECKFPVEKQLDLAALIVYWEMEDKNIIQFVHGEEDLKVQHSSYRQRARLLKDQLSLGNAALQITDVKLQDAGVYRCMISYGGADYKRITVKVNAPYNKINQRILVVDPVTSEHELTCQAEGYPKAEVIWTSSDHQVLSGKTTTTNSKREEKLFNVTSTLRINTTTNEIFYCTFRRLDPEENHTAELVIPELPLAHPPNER

Increased relative affinity | Binder
6.16 relative | h_Nb1_G99W (VHH, also called 105) VHH: DVQLQESGGGLVQPGGSLRLSCAASGFTFSSYAMSWVRQAPGKGLEWVSDINSGGDNTDYADSVKGRFTISRDNAKNTLYLQMNSLKPEDTAVYYCARWPKLCFSSWGQGTQVTVSS
6.16 relative | h_Nb1_G99Q (VHH, also called 104) VHH: DVQLQESGGGLVQPGGSLRLSCAASGFTFSSYAMSWVRQAPGKGLEWVSDINSGGDNTDYADSVKGRFTISRDNAKNTLYLQMNSLKPEDTAVYYCARQPKLCFSSWGQGTQVTVSS
7.02 relative | h_Nb1_G99Y (VHH, also called 106) VHH: DVQLQESGGGLVQPGGSLRLSCAASGFTFSSYAMSWVRQAPGKGLEWVSDINSGGDNTDYADSVKGRFTISRDNAKNTLYLQMNSLKPEDTAVYYCARYPKLCFSSWGQGTQVTVSS
5.8 relative | h_Nb1_D62Y (VHH, also called 99) VHH: DVQLQESGGGLVQPGGSLRLSCAASGFTFSSYAMSWVRQAPGKGLEWVSDINSGGDNTDYAYSVKGRFTISRDNAKNTLYLQMNSLKPEDTAVYYCARGPKLCFSSWGQGTQVTVSS

Second part, the binder before the results:

Binder | Increased relative affinity
h_Nb1_G99R (VHH, also called 103) VHH: DVQLQESGGGLVQPGGSLRLSCAASGFTFSSYAMSWVRQAPGKGLEWVSDINSGGDNTDYADSVKGRFTISRDNAKNTLYLQMNSLKPEDTAVYYCARRPKLCFSSWGQGTQVTVSS | 12.1 relative
h_Nb1_D59R (VHH, also called 95) VHH: DVQLQESGGGLVQPGGSLRLSCAASGFTFSSYAMSWVRQAPGKGLEWVSDINSGGDNTRYADSVKGRFTISRDNAKNTLYLQMNSLKPEDTAVYYCARGPKLCFSSWGQGTQVTVSS | 4.28 relative
h_Nb1_A61N (VHH, also called 92) VHH: DVQLQESGGGLVQPGGSLRLSCAASGFTFSSYAMSWVRQAPGKGLEWVSDINSGGDNTDYNDSVKGRFTISRDNAKNTLYLQMNSLKPEDTAVYYCARGPKLCFSSWGQGTQVTVSS | 5.13 relative
h_Nb1_D62W (VHH, also called 98) VHH: DVQLQESGGGLVQPGGSLRLSCAASGFTFSSYAMSWVRQAPGKGLEWVSDINSGGDNTDYAWSVKGRFTISRDNAKNTLYLQMNSLKPEDTAVYYCARGPKLCFSSWGQGTQVTVSS | 11.7 relative
h_Nb1_A61Q (VHH, also called 93) VHH: DVQLQESGGGLVQPGGSLRLSCAASGFTFSSYAMSWVRQAPGKGLEWVSDINSGGDNTDYQDSVKGRFTISRDNAKNTLYLQMNSLKPEDTAVYYCARGPKLCFSSWGQGTQVTVSS | 4.66 relative
h_Nb1_C103K (VHH, also called 100) VHH: DVQLQESGGGLVQPGGSLRLSCAASGFTFSSYAMSWVRQAPGKGLEWVSDINSGGDNTDYADSVKGRFTISRDNAKNTLYLQMNSLKPEDTAVYYCARGPKLKFSSWGQGTQVTVSS | 3.31 relative
h_Nb1_D59M (VHH, also called 96) VHH: DVQLQESGGGLVQPGGSLRLSCAASGFTFSSYAMSWVRQAPGKGLEWVSDINSGGDNTMYADSVKGRFTISRDNAKNTLYLQMNSLKPEDTAVYYCARGPKLCFSSWGQGTQVTVSS | 4.9 relative
h_Nb1_A61K (VHH, also called 94) VHH: DVQLQESGGGLVQPGGSLRLSCAASGFTFSSYAMSWVRQAPGKGLEWVSDINSGGDNTDYKDSVKGRFTISRDNAKNTLYLQMNSLKPEDTAVYYCARGPKLCFSSWGQGTQVTVSS | 4.12 relative
h_Nb1_C103W (VHH) VHH: DVQLQESGGGLVQPGGSLRLSCAASGFTFSSYAMSWVRQAPGKGLEWVSDINSGGDNTDYADSVKGRFTISRDNAKNTLYLQMNSLKPEDTAVYYCARGPKLWFSSWGQGTQVTVSS | 3.83 relative
h_Nb1_C103M (VHH) VHH: DVQLQESGGGLVQPGGSLRLSCAASGFTFSSYAMSWVRQAPGKGLEWVSDINSGGDNTDYADSVKGRFTISRDNAKNTLYLQMNSLKPEDTAVYYCARGPKLMFSSWGQGTQVTVSS | 3.38 relative
h_Nb1_D59F (VHH, also called 97) VHH: DVQLQESGGGLVQPGGSLRLSCAASGFTFSSYAMSWVRQAPGKGLEWVSDINSGGDNTFYADSVKGRFTISRDNAKNTLYLQMNSLKPEDTAVYYCARGPKLCFSSWGQGTQVTVSS | 5.12 relative

molecular target: T1, PD-L1 (human PD-L1 protein of the ELISA …); assay: ELISA; affinity relative to original antibody h_Nb2 VHH (SEQ ID NO.25)

Increased relative affinity | Binder
6.23 relative | h_Nb2_G30R (VHH, also called 107) VHH: DVQLQESGGGLVQPGGSLRLSCAASGFTFRDRWMYWLRQAPGKGLEWVSSINPAGRSTYYADSVKGRFTISRDNAKNTLYLQMNSLKSEDTAVYYCTKDPGGYQKGQGTQVTVSS
3.41 relative | h_Nb2_P100Q (VHH, also called 116) VHH: DVQLQESGGGLVQPGGSLRLSCAASGFTFGDRWMYWLRQAPGKGLEWVSSINPAGRSTYYADSVKGRFTISRDNAKNTLYLQMNSLKSEDTAVYYCTKDQGGYQKGQGTQVTVSS
1.44 relative | h_Nb2_F29W (VHH, also called 114) VHH: DVQLQESGGGLVQPGGSLRLSCAASGFTWGDRWMYWLRQAPGKGLEWVSSINPAGRSTYYADSVKGRFTISRDNAKNTLYLQMNSLKSEDTAVYYCTKDPGGYQKGQGTQVTVSS
5.92 relative | h_Nb2_G101W (VHH, also called 111) VHH: DVQLQESGGGLVQPGGSLRLSCAASGFTFGDRWMYWLRQAPGKGLEWVSSINPAGRSTYYADSVKGRFTISRDNAKNTLYLQMNSLKSEDTAVYYCTKDPWGYQKGQGTQVTVSS
3.98 relative | h_Nb2_P100E (VHH) VHH: DVQLQESGGGLVQPGGSLRLSCAASGFTFGDRWMYWLRQAPGKGLEWVSSINPAGRSTYYADSVKGRFTISRDNAKNTLYLQMNSLKSEDTAVYYCTKDEGGYQKGQGTQVTVSS
6.5 relative | h_Nb2_G101R (VHH, also called 110) VHH: DVQLQESGGGLVQPGGSLRLSCAASGFTFGDRWMYWLRQAPGKGLEWVSSINPAGRSTYYADSVKGRFTISRDNAKNTLYLQMNSLKSEDTAVYYCTKDPRGYQKGQGTQVTVSS
5.11 relative | h_Nb2_G30F (VHH, also called 108) VHH: DVQLQESGGGLVQPGGSLRLSCAASGFTFFDRWMYWLRQAPGKGLEWVSSINPAGRSTYYADSVKGRFTISRDNAKNTLYLQMNSLKSEDTAVYYCTKDPGGYQKGQGTQVTVSS
10 relative | h_Nb2_G30W (VHH, also called 109) VHH: DVQLQESGGGLVQPGGSLRLSCAASGFTFWDRWMYWLRQAPGKGLEWVSSINPAGRSTYYADSVKGRFTISRDNAKNTLYLQMNSLKSEDTAVYYCTKDPGGYQKGQGTQVTVSS
1.46 relative | h_Nb2_F29R (VHH, also called 113) VHH: DVQLQESGGGLVQPGGSLRLSCAASGFTRGDRWMYWLRQAPGKGLEWVSSINPAGRSTYYADSVKGRFTISRDNAKNTLYLQMNSLKSEDTAVYYCTKDPGGYQKGQGTQVTVSS
